Experimental data from article PMC11109247.
Where “and” joins values, the source holds several entries; their conditions need not be identical. Identical values can stand only once.

What was measured:
[1] = biological target: HeV G ectodomain (Hendra virus attachment glycoprotein, residues 71-604), Strep-tagged (Hendra virus) (UniProt O89343); assay: SDS-PAGE without reduction and boiling
[2] = biological target: NiVMY G ectodomain (Nipah virus Malaysia attachment glycoprotein, residues 71-602), Strep-tagged (Nipah virus (Malaysia strain)) (UniProt Q9IH62); assay: SDS-PAGE without reduction and boiling
[3] = biological target: prefusion soluble NiV F (sF; NiVBD fusion protein residues 26-482 with GCNt motif) (Nipah virus Bangladesh (NiVBD)); assay: BLI
[4] = biological target: prefusion soluble NiV F (sF; NiVBD fusion protein residues 26-482 with GCNt motif) (Nipah virus Bangladesh (NiVBD)); assay: MST

**Q.** How did the stoichiometry N [1] turn out when “HeV G ectodomain (Hendra virus attachment glycoprotein, residues 71-604), Strep-tagged (from UniProt O89343 71-604) (domain or fragment)” was run?
**A.** The stoichiometry N was 4 and 2.

**Q.** For “NiVMY G ectodomain (Nipah virus Malaysia attachment glycoprotein, residues 71-602), Strep-tagged (from UniProt Q9IH62 71-602) (domain or fragment)”, which stoichiometry N [2] is on record?
**A.** The stoichiometry N was 4 and 2.

**Q.** Which Kd [3] does the source give for P-59 (peptide of NiVBD G, 233-247 aa) here?
**A.** Its Kd is 190 nM.

**Q.** What about the Kd [4] of the same substance?
**A.** Its Kd is 5000 nM.
